{"source": "patent US20150098945A1", "about": "(Daiichi Sankyo, published 2015)", "target": "T1, human ROBO2 (pCI-hROBO2-transfected HEK293 cells) (human)", "T1 chain": "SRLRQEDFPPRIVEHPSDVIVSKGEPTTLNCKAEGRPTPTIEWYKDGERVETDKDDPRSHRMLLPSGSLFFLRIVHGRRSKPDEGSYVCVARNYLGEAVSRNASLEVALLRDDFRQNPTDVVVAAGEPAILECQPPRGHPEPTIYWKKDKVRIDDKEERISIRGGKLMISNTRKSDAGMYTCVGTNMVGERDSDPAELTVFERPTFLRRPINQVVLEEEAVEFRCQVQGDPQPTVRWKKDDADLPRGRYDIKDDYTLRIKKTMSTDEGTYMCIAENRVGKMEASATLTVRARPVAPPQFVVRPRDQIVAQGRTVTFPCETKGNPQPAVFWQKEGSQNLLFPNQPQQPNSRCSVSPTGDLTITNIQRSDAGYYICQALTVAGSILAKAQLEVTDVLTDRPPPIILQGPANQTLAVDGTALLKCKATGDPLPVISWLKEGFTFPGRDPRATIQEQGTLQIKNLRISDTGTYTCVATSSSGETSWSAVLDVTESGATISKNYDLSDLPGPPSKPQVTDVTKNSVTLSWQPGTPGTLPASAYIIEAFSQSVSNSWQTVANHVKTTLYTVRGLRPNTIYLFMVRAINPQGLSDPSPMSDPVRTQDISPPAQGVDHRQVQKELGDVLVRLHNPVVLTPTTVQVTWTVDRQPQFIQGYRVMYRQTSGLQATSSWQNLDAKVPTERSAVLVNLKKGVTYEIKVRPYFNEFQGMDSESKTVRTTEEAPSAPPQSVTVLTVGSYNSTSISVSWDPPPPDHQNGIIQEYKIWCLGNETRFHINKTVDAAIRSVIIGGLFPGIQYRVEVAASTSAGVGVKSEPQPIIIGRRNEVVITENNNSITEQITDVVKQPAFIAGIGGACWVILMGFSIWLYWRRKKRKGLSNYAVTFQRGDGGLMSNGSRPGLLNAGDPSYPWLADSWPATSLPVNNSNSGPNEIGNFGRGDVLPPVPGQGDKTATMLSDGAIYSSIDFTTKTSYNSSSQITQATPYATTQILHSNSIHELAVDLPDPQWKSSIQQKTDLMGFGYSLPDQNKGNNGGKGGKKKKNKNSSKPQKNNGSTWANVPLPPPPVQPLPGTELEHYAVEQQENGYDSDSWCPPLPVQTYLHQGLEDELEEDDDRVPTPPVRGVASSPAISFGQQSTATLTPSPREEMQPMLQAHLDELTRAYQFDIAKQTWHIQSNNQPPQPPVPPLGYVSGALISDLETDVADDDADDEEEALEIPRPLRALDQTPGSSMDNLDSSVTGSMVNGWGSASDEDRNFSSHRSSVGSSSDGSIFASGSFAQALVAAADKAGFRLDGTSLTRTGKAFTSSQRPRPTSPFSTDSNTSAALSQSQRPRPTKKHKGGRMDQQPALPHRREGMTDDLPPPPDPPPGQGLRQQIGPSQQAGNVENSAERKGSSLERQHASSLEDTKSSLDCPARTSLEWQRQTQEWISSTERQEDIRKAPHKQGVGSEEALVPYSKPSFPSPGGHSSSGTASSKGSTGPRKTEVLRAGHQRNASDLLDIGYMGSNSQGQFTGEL", "experiment": "flow cytometry, HEK293 cells transfected with pCI-hROBO2, anti-mouse IgG FITC; control histogram IgG", "procedure": "HEK293 cells were inoculated at a concentration of 1.2×10⁶ cells/dish or 1.5×10⁶ cells/dish to a 60-mm dish (manufactured by Corning Inc.) and cultured overnight in a DMEM medium containing 10% FBS at 37° C. under 5% CO₂ conditions. On the next day, the HEK293 cells were transfected with pCI-hROBO4, pCI-FLAG-hROBO1, pCI-hROBO2, or pCI-hROBO3 using FuGENE6 Transfection Reagent and further cultured overnight at 37° C. under 5% CO₂ conditions. On the next day, the expression vector-transfected cells were treated with TrypLE Express (manufactured by Life Technologies Corp.), washed with PBS containing 5% FBS, and then suspended in PBS containing 5% FBS. The obtained cell suspension was used in flow cytometry analysis.\nEach cell suspension prepared in 4)-4-1 was centrifuged, and the supernatant was removed. […] Data was analyzed using Flowjo. The histogram of FITC fluorescence intensity was prepared. The antibody was determined to bind in a specific manner when the histogram of MAb1 was shifted to a stronger fluorescence intensity region compared with the histogram of the negative control Mouse IgG1 or Mouse IgG2a. […]", "data": [{"binder": "anti-ROBO4 mouse monoclonal antibody MAb1 (antibody, mouse IgG1, V domains shown, Mouse IgG1 (gamma1), kappa light chain, purified from hybridoma supernatant; also called parent antibody MAb1) VH: EVQLVESGGGLVKPGGSLKLSCAASGFTFSTYAMSWVRQTPEKRLEWVATISNGGTYTYYPDSVKGRFTISRDNAENTLYLQMSSLRSEDTAMYFCARLIYYDYLDYWGHGTTLTVSS VL: DAVMTQTPLSLPVSLGDQASISCRSSQSLENSNGNTYLNWYFQKPGQSPQLLIYRVSNRFSGVLDRFSGSGSGTDFTLKISRVEAEDFGVYFCLQVTHVPWTFGGGTKLEIKR", "values": [{"measurement": "binding result", "value": "no binding (tested: 10 µg/mL)"}]}]}
